The target in series [1] is T1, von Willebrand factor (VWF) (Homo sapiens, UniProt P04275 P04275:764-2813). Kind of series: filter; Bmax 63%; 2 mM CaCl2, 37 C. To be noted: tags: factor VIII free, Haematologic Technologies Inc; label: 5'-32P. Here is the method:
(§1) Affinity constants (Kd values) were determined using double-filter nitrocellulose filter binding assays (Rusconi et al, Thromb. Haemost. $4:841-848 (2000)). All binding studies were performed in binding buffer F (20 mM HEPES, pH 7.4, 150 mM NaCl, 2 mM CaCl₂, and 0.01% BSA) at 37° C. Human purified VWF (factor VIII free) was purchased from Haematologic Technologies Inc. (Essex Junction, Vt.) and used in the double-filter nitrocellulose filter binding assay to determine the Kd of the aptamers. Briefly, RNA were end-labeled at the 5′ end with T4 polynucleotide kinase (New England Biolabs, Beverly, Mass.) and [γ³²P] ATP (Amersham Pharmacia Biotech, Piscataway, N.J.) (Fitzwater and Polisky, Methods Enzymol. 267:275-301 (1996)). End-labeled RNA was diluted in binding buffer F, heat denatured at 65° C. for 5 minutes, and subsequently equilibrated at 37° C. Direct binding was performed by incubating trace ³²P-RNA with varying concentrations of VWF protein in binding buffer F at 37° C. for 5 min. The fraction of the nucleic acid-protein complex which bound to the nitrocellulose membrane was quantified with a phosphorimager (Molecular Dynamics, Sunnyvale, Calif.). Non-specific binding of the radiolabeled nucleic acid was subtracted out of the binding such that only specific binding remained (Wong and Lohman, Proc. Natl. Acad. Sci. USA 90:5428-5432 (1993)).

Series [2] concerns the target T1, von Willebrand factor (VWF). Description: filter; Bmax 74%; 2 mM CaCl2, 37 C. To be noted: tags: factor VIII free human purified VWF, Haematologic Technologies Inc; label: 5'-32P. On the procedure: as §1
Series [3] has the same target. Description: filter; Bmax 65%; 2 mM CaCl2, 37 C. The settings on record: tags: factor VIII free, Haematologic Technologies Inc; label: 5'-32P. On the procedure: as §1
Series [4] has the same target. Kind of series: filter; Bmax 64%; 2 mM CaCl2, 37 C. To be noted: tags: factor VIII free, Haematologic Technologies Inc; label: 5'-32P. Here is the method: as §1
Series [5] has the same target. Kind of series: filter; Bmax 64.8%; 2 mM CaCl2, 37 C. To be noted: tags: factor VIII free, Haematologic Technologies Inc; label: 5'-32P. On the procedure:
as §1

For series [6] the target is unchanged. Description: filter; Bmax 20%; 2 mM CaCl2, 37 C. The settings on record: tags: factor VIII free, Haematologic Technologies Inc; label: 5'-32P. Here is the method: as §1
Series [7] has the same target. Kind of series: filter; Bmax 44%; 2 mM CaCl2, 37 C. The settings on record: tags: factor VIII free, Haematologic Technologies Inc; label: 5'-32P. On the procedure: as §1
For series [8] the target is unchanged. Kind of series: filter; Bmax 21%; 2 mM CaCl2, 37 C. The settings on record: tags: factor VIII free, Haematologic Technologies Inc; label: 5'-32P. Here is the method:
as §1

For series [9] the target is unchanged. Kind of series: filter; Bmax 43%; 2 mM CaCl2, 37 C. The settings on record: tags: factor VIII free, Haematologic Technologies Inc; label: 5'-32P. Here is the method: as §1
For series [10] the target is unchanged. Kind of series: filter; Bmax 70%; 2 mM CaCl2, 37 C. To be noted: tags: factor VIII free, Haematologic Technologies Inc; label: 5'-32P. Here is the method: as §1
Series [11] has the same target. Kind of series: filter; Bmax 37%; 2 mM CaCl2, 37 C. To be noted: tags: factor VIII free, Haematologic Technologies Inc; label: 5'-32P. On the procedure:
as §1

Series [12] has the same target. Kind of series: filter; NB (no binding); 2 mM CaCl2, 37 C. To be noted: tags: factor VIII free, Haematologic Technologies Inc; label: 5'-32P. On the procedure:
as §1

Series [13] shares this target. Kind of series: filter; Bmax 68%; 2 mM CaCl2, 37 C. To be noted: tags: factor VIII free, Haematologic Technologies Inc; label: 5'-32P. Here is the method: as §1
Series [14] shares this target. Description: filter; Bmax 38%; 2 mM CaCl2, 37 C. The settings on record: tags: factor VIII free, Haematologic Technologies Inc; label: 5'-32P. Here is the method:
as §1

Series [15] shares this target. Kind of series: filter; Bmax 25%; 2 mM CaCl2, 37 C. The settings on record: tags: factor VIII free, Haematologic Technologies Inc; label: 5'-32P. On the procedure: as §1
Series [16] has the same target. Description: filter; Bmax 33%; 2 mM CaCl2, 37 C. To be noted: tags: factor VIII free, Haematologic Technologies Inc; label: 5'-32P. On the procedure: as §1
For series [17] the target is unchanged. Kind of series: filter; Bmax 53%; 2 mM CaCl2, 37 C. The settings on record: tags: factor VIII free, Haematologic Technologies Inc; label: 5'-32P. On the procedure:
as §1

For series [18] the target is unchanged. Kind of series: filter; Bmax 50%; 2 mM CaCl2, 37 C. The settings on record: tags: factor VIII free, Haematologic Technologies Inc; label: 5'-32P. On the procedure:
as §1

On to ACGAACUGCCCUCGAUCGACGCACAGACGUACACA (ssRNA, 2'-F C and U; 2'-OH A and G; 3' idT) [T81], for which, in series [1], binding was put at a Kd of 0.0042 µM.

For the molecule ACGAACUGCCCUCGAUCGACGCACAGACGUACACG (ssRNA, 2'-F C9,C10,C11,C20,G21,C22; rest 2'-OMe; 3' idT) [T84 vrt7], the Kd (as a rule, the equilibrium constant for the complex coming apart) in series [2] stood at 0.182 µM.

Regarding ACGAACUGCCCUCGAUCGACGCACAGACGU (ssRNA, mAmCmGmAmAmCfUmGfCfCfCmUmCmGmAmUmCmGmAfCmGfCrAmCmAmGmAmCmGfU-idT) [T59 vrt15], binding in series [3] was put at a Kd of 0.0325 µM.

Molecule ACGAACUGCCCUCGAUCGACGCACAGACGUUUUUU (ssRNA, 2'-F C and U; 2'-OH A and G; 3' idT) [T79] yielded a Kd in [4] of 0.0016 µM.

In the case of ACGAACUGCCCUCGUAAGACGCACAGACGUUUUUU (ssRNA, mAmCmGmAmAmCmUmGfCfCfCmUmCmGmUmAmAmGmAfCrGfCmAmCmAmGmAmCmGmUmUmUmUmUmUidT) [DTRI-019], the affinity in series [5], expressed as Kd, was 0.0043 µM.

As for ACGAACUGCCCUCGAUCGACGCACAGACGUUUUUU (ssRNA, mAmCmGmAmAmCmUmGfCfCfCmUmCmGmAmUmCmGmAfCmGfCmAmCmAmGmAmCmGfUmUmUmUmUmU-idT) [T79 vrt3], the Kd in series [6] came to 0.066 µM.

Consider ACGAACUGCCCUCGAUCGACGCACAGACGU (ssRNA, mAmCmGmAmAmCmUmGfCfCfCmUmCmGmAmUmCmGmAfCfGfCmAmCmAmGmAmCmGfUidT) [DTRI-007], for which binding in [7] was put at a Kd of 0.016 µM.

Molecule CCGAACUGCCCUCAGCUAUUAUUAGCUGACGCACAGACGG (ssRNA, 2'-F C and U; 2'-OH A and G; 3' idT) [T30] had a Kd in series [8] of 0.0393 µM.

B1: T22 (ssRNA)
RNA: GGACGAACUGCCCUCAGCUACUUUCAUGUUGCUGACGCACAGACGACUCGCUG
modifications: 2'-F C and U; 2'-OH A and G
B1 gave a Kd in series [9] of 0.028 µM.

In turn, ACGAACUGCCCUCGAUCGACGCACAGACGU (ssRNA, mAmCmGmAmAmCfUmGfCfCfCmUmCmGmAmUmCmGmAfCrGfCmAmCmAmGmAmCmGfU-idT) [T59 vrt17] came in with a Kd in series [10] of 0.013 µM.

For CCCACGAACUGCCCUCGAUCGACGCACAGACGU (ssRNA, 2'-F C and U; 2'-OH A and G; 3' idT) [T74], the Kd in [11] stood at 0.023 µM.

B2: T12 (ssRNA)
RNA: GGGAGGAACUGCCCUCAGCUACUUUCAUGUUGCUGACGCACAGACGACUCGCUG
modifications: 2'-F C and U; 2'-OH A and G
On to B2, for which the binding result in [12] is recorded as “no binding”.

On to ACGAACUGCCCUCAGCUACUUAUGUUGCUGACGCACAGACGU (ssRNA, 2'-F C and U; 2'-OH A and G; 3' idT) [T37], for which, in series [13], binding was characterised by a dissociation constant (Kd) of 0.01 µM.

B3: T25 vrt3 (ssRNA)
RNA: ACGAACUGCCCUCAGCUACUUUCAUGUUGCUGACGCACAGACGU
modifications: mAfCmGrArAfCfUrGfCfCfCfUfCrArGfCfUrAfCfUfUfUfCrAfUrGfUfUrGfCfUrGrAfCrGfCrAfCrArGrAfCmGfU-idT (m=2'-OMe, f=2'-F, r=2'-OH)
Regarding B3, binding in series [14] was characterised by a dissociation constant (Kd) of 0.0092 µM.

B4: T25 vrt24 (ssRNA)
RNA: B3 RNA
modifications: rAfCrGrArAfCfUrGfCfCfCfUfCrArGfCfUrAfCfUfUfUfCrAfUrGfUfUrGfCfUrGrAmCrGfCrAfCrArGrAfCrGfU-idT
The molecule B4 had a Kd in series [15] of 0.055 µM.

B5: T25 vrt4 (ssRNA)
RNA: B3 RNA
modifications: mAmCmGrArAfCfUrGfCfCfCfUfCrArGfCfUrAfCfUfUfUfCrAfUrGfUfUrGfCfUrGrAfCrGfCrAfCrArGrAmCmGmU-idT
In [16], B5 yielded a Kd of 0.0059 µM.

ACGAACUGCCCUCGAUCGACGCACAGACGU (ssRNA, mAfCmGmAmAmCfUmGfCfCfCfUmCmGmAmUmCmGmAfCmGfCmAmCmAmGmAfCmGfU-idT) [T59 vrt4] registered a Kd in [17] of 0.364 µM.

Turning to ACGAACUGCCCUCAGACUUUCAUGUCUGACGCACAGACGU (ssRNA, 2'-F C and U; 2'-OH A and G; 3' idT) [T39], in [18], the Kd was 0.011 µM.

Values taken from patent publication US20190218553, “VON WILLEBRAND FACTOR (VWF)-TARGETING AGENTS AND METHODS OF USING THE SAME” (DUKE UNIVERSITY, published 2019).
